Columns and labels:
[1] = molecular target: T1, psmd9_human PSMD9 (UniProt O00233)
T1 sequence: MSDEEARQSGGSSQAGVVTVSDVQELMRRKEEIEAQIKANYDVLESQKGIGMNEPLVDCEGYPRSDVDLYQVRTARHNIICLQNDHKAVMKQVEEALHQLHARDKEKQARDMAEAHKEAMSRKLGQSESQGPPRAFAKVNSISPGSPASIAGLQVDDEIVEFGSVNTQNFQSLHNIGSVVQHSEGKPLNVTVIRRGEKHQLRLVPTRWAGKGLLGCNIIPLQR

[2] = molecular target: T1, psmd9_human PSMD9; remark: listed apart in the source

effect of a mutation on the interaction [1]: decreasing interaction strength
effect of a mutation on the interaction [2]: disrupting interaction strength
Substance: Small ribosomal subunit protein uS11 (Homo sapiens) (from UniProt P62263) L151G
